Paper PMC12152739

System: CC(C)(O/N=C(\C(=O)N[C@@H]1C(=O)N2C(C(=O)[O-])=C(C[N+]3(CCNC(=O)c4ccc(O)c(O)c4Cl)CCCC3)CS[C@H]12)c1csc(N)n1)C(=O)O
Experiment: purified protein, by the assay type
Conditions: other: FDC hydrolysis by VIM-2, 30 °C, pH 7.5

VIM-2 (Escherichia coli) showed a kcat of 1.1 ± 0.14 s⁻¹.
